Measured values published in paper PMC7870846, “Incorporation of sensing modalities into de novo designed fluorescence-activating proteins” (Nature Communications, 2021).
Values belong to the molecule of their own block, whether it stands above or below them.

Legend:
[1] = Ca2+-responsive mFAP Ca2+ titrations; type: binding
Experimental: In measuring Ca^2+ affinity of mFAPs on a Synergy Neo2 hybrid multi-mode reader (Fig. 4d, e, f and Supplementary Figs. 10c, f, i, 11c, f, i, 13c, f, i, 16b), large-scale purified proteins[49] were aliquoted in technical triplicate to a final concentration of 500 nM with 5.00 μM DFHBI in eleven serial dilutions ( 10 dilution factor) of CaCl2 (Sigma Aldrich) starting from either 900 mM or 90.0 mM CaCl2 (diluted using high-salt Tev cleavage buffer) including a twelfth condition without CaCl2. Final volumes were 200 μL in flat bottom, black polystyrene, non-binding surface 96-well microplates (Corning 3650). Fluorescence endpoints were measured using excitation wavelength λex = 484 nm and emission wavelength λem = 508 nm. Background fluorescence endpoints of wells with identical chromophore and CaCl2 concentrations lacking protein (substituted for equivalent volumes of high-salt Tev cleavage buffer) were measured in technical triplicate, averaged per condition, and subtracted from protein measurement averages of the same conditions.
For Ca^2+ titrations of EF4n_mFAP2a and EF4n_mFAP2b (Supplementary Fig. 13c), a small amount of Chelex 100 sodium form (Sigma Aldrich) was added to purified protein (produced by large-scale protein purification and SEC purification[49]) and nutated at 4 °C overnight. EF4n_mFAP2a was aliquoted in technical triplicate to a final concentration of 8.00 μM with 80.0 μM DFHBI and EF4n_mFAP2b was aliquoted in technical triplicate to a final concentration of 6.25 μM with 43.4 μM DFHBI, in eleven serial dilutions ( 10 dilution factor) of CaCl2 starting from 9.00 mM or 4.00 mM CaCl2 (diluted using high-salt Tev cleavage buffer pre-treated with Chelex 100) including a twelfth condition without CaCl2. Final volumes were 25.0 μL in flat bottom, black polystyrene, non-binding surface 96-well half-area microplates (Corning 3686) or 200 μL in flat bottom, black polystyrene, non-binding surface 96-well microplates (Corning 3650). Fluorescence endpoints were measured for EF4n_mFAP2a using excitation wavelength λex = 478 nm and emission wavelength λem = 520 nm, and for EF4n_mFAP2b using excitation wavelength λex = 484 nm and emission wavelength λem = 508 nm. Background fluorescence endpoints of wells with identical chromophore and CaCl2 concentrations lacking protein (substituted for equivalent volumes of high-salt Tev cleavage buffer) were measured in technical triplicate, averaged per condition, and subtracted from protein measurement averages of the same conditions. For non-linear least squares fitting to obtain Kd values, means were fit to a single-binding site isotherm function where Ca^2+-binding sites were modeled independently with a Hill coefficient of 1.

[2] = In vitro chromophore titration with DFHBI (fluorescence, single-binding site isotherm fit)
Experimental: Fluorescence endpoints were measured on a Synergy Neo2 hybrid multi-mode reader (BioTek) in flat bottom, black polystyrene, non-binding surface 96-well microplates (Corning 3650). In measuring chromophore-binding affinities (Fig. 1d, e), mFAP2, mFAP2a, and mFAP2b, and mFAP10 were produced by large-scale protein purification and SEC purification. Proteins were aliquoted in eight technical replicates in 200 μL final volumes to 20.0 nM final concentration in ten serial dilutions ( 10 dilution factor) of DFHBI starting from 31.6 μM DFHBI or 31.6 μM DFHBI-1T final concentrations, including an eleventh condition without chromophore. Fluorescence was excited at λex = 468 nm and fluorescence emission measured at λem = 530 nm. Background fluorescence endpoints of wells with identical chromophore concentrations but purified protein replaced with an identical volume of high-salt Tev cleavage buffer were measured, and fluorescence endpoints subtracted from those measured with protein. Background-subtracted data were averaged and the means normalized from 0 to 1 and fit to a single-binding site isotherm function using non-linear least squares fitting to obtain a fitted Kd value (Table 1), and the fit scaled to the maximum mean value (Fig. 1d, e).

[3] = Photophysical characterization: absorbance, excitation/emission spectra, extinction coefficients, quantum yields; type: physicochemical
Experimental: Protein preparation: mFAP2a, mFAP2b, and mFAP10 were produced by large-scale protein purification and SEC purification, and dialyzed overnight into DPBS that was adjusted to pH 7.40 using NaOH.
Chromophore preparation: DFHBI (Lucerna) and DFHBI-1T (Lucerna) were dissolved to 20.0 mM in 100% DMSO, and diluted in DPBS (pH 7.40) to measure absorbances on a Jasco V-750 spectrophotometer at peak absorbance wavelengths (417 nm for DFHBI and 422 nm for DFHBI-1T). Following background subtraction of identical buffer without chromophore, Beer’s Law was used to calculate the molar chromophore concentrations of the stock solutions using previously reported extinction coefficients.
Preparation of protein–chromophore complexes: For quantum yield measurements, 1.00 μM, 836 nM, or 919 nM chromophore solutions in DPBS (pH 7.40) at 4.00 mL final volumes were prepared for the following eight conditions: DFHBI only, DFHBI-1T only, 43.5 µM 6xHis-mFAP10 with DFHBI, 43.5 µM 6xHis-mFAP10 with DFHBI-1T, 134 μM 6xHis-mFAP2a with DFHBI, 134 μM 6xHis-mFAP2a with DFHBI-1T, 206 μM 6xHis-mFAP2b with DFHBI, and 206 μM 6xHis-mFAP2b with DFHBI-1T.
Extinction coefficients: Absorbance spectra of protein–chromophore complexes were first measured with a Thermo Scientific BioMate 3S UV–Vis Spectrophotometer (1 nm interval, 800 nm min^−1). The extinction coefficients were then calculated using Beer’s Law:12 A=ε⋅b⋅c, where A is peak absorbance, ε is extinction coefficient, b is path length (1 cm), and c is concentration (1.00 μM, 836 nM, or 919 nM).
Relative quantum yield: A Perkin-Elmer LS-B Luminescence Spectrophotometer (10 nm bandwidth, 1 nm interval, 100 nm min^−1) was used. The fluorescence emission spectra of the protein–chromophore complexes (in DPBS, pH 7.40) and reference dye Acridine Yellow G (in methanol) were first obtained, and the quantum yield was then calculated using the equation[53]:13 ϕc=ϕr⋅1−10^−Ar(λex)/1−10^−Ac(λex)⋅∫Fc(λ)⋅dλ/∫Fr(λ)⋅dλ⋅nc2/nr2, where ϕ is quantum yield, A(λex) is absorbance at the excitation wavelength λex ( λex = 440 nm), F is fluorescence emission, n is refractive index of the solution (1.3350 for DPBS at pH 7.40 and 1.3284 for methanol), and the subscripts “c” and “r” refer to the protein–chromophore complex measured and the reference dye, respectively. […]
Absolute quantum yield: An integrating sphere instrument (Hamamatsu C9920-12) (6 nm excitation bandwidth, 1 nm interval) and a high-sensitivity photonic multi-channel analyzer (Hamamatsu C10027-01) were used to measure a light emission spectrum. Absolute quantum yields were measured for solutions of protein–chromophore complexes in DPBS (pH 7.40) in which ≥95% of the total chromophore was occupying the protein-binding pocket (Table 1). […]

[4] = Fluorescence intensity assays of mFAP variants; type: biochemical
Experimental: To measure fluorescence intensities of the phenolate form of chromophores, fluorescence was measured on a Synergy Neo2 hybrid multi-mode reader (BioTek) in flat bottom, black polystyrene, non-binding surface 96-well microplates (Corning 3650). Fluorescence intensity was measured in triplicate by exciting at λex = 484 nm and measuring fluorescence emission at λem = 505 nm (or λem = 511 nm for clones harboring the W27 mutation) (Supplementary Fig. 1g, h). The W27 mutation redshifts the peak emission wavelength from λem = ~505 nm to λem = ~511 nm, presumably due to the W27 indole ring donating a hydrogen bond to the imidazolinone moiety of the deprotonated state of DFHBI, which stabilizes the chromophore conjugated π–electron system in the excited state causing the redshift in emission. Fifteen microliters of small-scale purified protein[49] was combined with 185 μL of Na2HPO4-citrate (pH 7.36) buffer supplemented with 150 mM NaCl and 108 nM DFHBI for a final concentration of 100 nM DFHBI. In measuring the excitation spectra from λem = 525 nm of each clone in triplicate (Supplementary Fig. 1i), 30.0 μL of large-scale purified protein[49] was combined with 170 μL of 25.0 mM Tris (pH 8.00) supplemented with 100 mM NaCl and 914 nM DFHBI for a final concentration of 7.77 μM protein and 777 nM DFHBI. In measuring the fluorescence intensity at λex = 484 nm and λem = 509 nm of each clone in triplicate (Supplementary Fig. 1j), 30.0 μL of large-scale purified protein[49] was combined with 170 μL of 25.0 mM Tris (pH 8.00) supplemented with 100 mM NaCl and 653 nM DFHBI for a final concentration of 5.55 μM protein and 555 nM DFHBI. In measuring fluorescence intensity at λex = 468 nm and λem = 530 nm of each clone in technical triplicate (Supplementary Fig. 1k), 24.0 μL of 35.4 µM large-scale purified protein[49] was combined with 1.00 μL of 1.25 µM DFHBI or 1.00 μL of 1.25 µM DFHBI-1T (Lucerna) (from […] chromophore stock solutions dissolved in 0.5% DMSO and 99.5% high-salt Tev cleavage buffer [25.0 mM Tris, 100 mM NaCl, pH 8.00]) for final concentrations of 34.0 μM protein and 50.0 nM chromophore. The mFAP9–DFHBI complex had ~1.1-fold the fluorescence intensity of the mFAP10–DFHBI complex, and the mFAP9–DFHBI-1T complex had ~0.75-fold the fluorescence intensity of the mFAP10–DFHBI-1T complex (Supplementary Fig. 1k). In collecting fluorescence emission spectra by exciting fluorescence at λex = 484 nm and collecting fluorescence emission at λem = 495–650 nm (Supplementary Fig. 6b), and in measuring fluorescence endpoints in techincal triplicate at unique peak excitation and emission wavelengths (Supplementary Fig. 6c), 195 μL of large-scale purified protein[49] was combined with 5.00 μL of 25 mM Tris (pH 8.00) supplemented with 100 mM NaCl and 40.0 μM DFHBI for a final concentration of 10.0 μM protein and 1.00 μM DFHBI.
In measuring fluorescence intensity of small-scale purified proteins[49] (Supplementary Table 1), wells were excited at λex = 488 nm for DFHBI and DFHBI-1T and λex = 505 nm for DFHO, and fluorescence emission measured at λem = 510 nm for DFHBI and DFHBI-1T and λem = 545 nm for DFHO. […]

B1: EF1p2_mFAP2b: positively allosteric Ca2+-responsive mFAP, one EF-hand motif (protein)
chain: SRAAQLLPGTWQVTMTNEDGQTSQGQWHFQPRSPYTMDIVAQGTISDGRPIVGYGKATVKTPDTLDIDITYPSLGNIKAQGQITMDSPTQFKWDAHYKGDKDGDGYISAAEAAAQGLTGTLQRQE
Ca2+-responsiveness / allostery between DFHBI and Ca2+ binding ([1]; Ca2+ titration with excess DFHBI): positive allostery
Kd ([1]; excess DFHBI compared to protein, Hill coefficient of 1): 2300 µM

B3: mFAP2.3: brightest variant of loop7 library (protein)
chain: SRAAQLLPGTWQVTMTNEDGQTSQGQMHFQPRSPYTMDVVAQGTISDGRPIVGYGKVTVKTPDTLDVDITYPSLGNIKAQGQITMDSPTQFKFDATTKGENDFHGRLTGTLQRQE
increase in fluorescence intensity from the phenolate form of DFHBI from mFAP2.2 ([4]; pH 7.36): ~ 1.1 fold

B5: mFAP3: brightest DFHO-binding variant (protein)
chain: SRAAQLLPGTWQATFTNEDGQTSQGQWHFQPRSPYTMDIVAQGTISDGRPIVGYGKATVKTPDTLDIDITWPSLGNIKGQGQITMDSPTQFKWDGTTKGENDFHGRLTGTLQRQE
fluorescence intensity with DFHO, lower (dimmer) than mFAP2b with DFHBI ([4]; 10.0 µM DFHO vs 10.0 µM DFHBI): ~ 10 fold

Now from value to molecule, other results behind:

higher affinity for DFHBI than DFHBI-1T [2]: ~ 39 fold
B2: mFAP2a: mFAP2 variant, "a" for affinity (protein)
chain: SRAAQLLPGTWQATFTNEDGQTSQGQWHFQPRSPYTMDIVAQGTISDGRPIVGYGKATVKTPDTLDIDITYPSLGNIKAQGQITMDSPTQFKWDATTKGENDFHGRLTGTLQRQE
brighter fluorescence with DFHBI-1T than DFHBI [3]: ~ 2.5 fold
brighter fluorescence than mFAP2b ([4]; low-DFHBI concentration (555 nM)): ~ 1.3 fold

higher affinity for DFHBI than DFHBI-1T [2]: ~ 2.6 fold
B4: mFAP10: variant from the IN2 combinatorial library (protein)
chain: SRAAQLLPGTWQATFTNEDGQTSQGQIHFQPRSPYTMDIVAQGTISDGRPIVGYGKATVKTPDTLDIDITYPSLGNIKAQGQITMDSPTQFKFDATTKGENDFHGRLTGTLQRQE
brighter fluorescence with DFHBI-1T than DFHBI [3]: ~ 12 fold
